For series [1], the target named is calsequestrin 2 (CSQ2, CASQ2) 19-399 (UniProt O14958). Kind of series: Ca2+-dependent turbidity, absorbance at 350 nm. The conditions noted are these: reference: CSQ2 treated in tandem without Fam20C; sites S385.
Series [2] concerns the molecule itself. The series can be described thus: turbidity assay; 4.5 uM phosphorylated or unphosphorylated His-CASQ2, 10 mM Tris-HCl pH 7.0, 10% glycerol, CaCl2 at the concentrations indicated; 30 min at room temperature; absorbance at 350 nm.

Data on three molecules can be found in PMC6298778, “A secretory pathway kinase regulates sarcoplasmic reticulum Ca^2+ homeostasis and protects against heart failure” (eLife, 2018).

Regarding “calsequestrin 2 (CSQ2, CASQ2) 19-399 (from UniProt O14958) CSQ2 phosphorylated in vitro by Fam20C”, the “binding against the reference” value in series [1] is “stronger”.

B1: calsequestrin 2 (CSQ2), phosphorylated in vitro by Fam20C, His-tagged (natural protein, human, UniProt O14958 19-399, looked up)
chain: AEEGLNFPTYDGKDRVVSLSEKNFKQVLKKYDLLCLYYHEPVSSDKVTQKQFQLKEIVLELVAQVLEHKAIGFVMVDAKKEAKLAKKLGFDEEGSLYILKGDRTIEFDGEFAADVLVEFLLDLIEDPVEIISSKLEVQAFERIEDYIKLIGFFKSEDSEYYKAFEEAAEHFQPYIKFFATFDKGVAKKLSLKMNEVDFYEPFMDEPIAIPNKPYTEEELVEFVKEHQRPTLRRLRPEEMFETWEDDLNGIHIVAFAEKSDPDGYEFLEILKQVARDNTDNPDLSILWIDPDDFPLLVAYWEKTFKIDLFRPQIGVVNVTDADSVWMEIPDDDDLPTAEELEDWIEDVLSGKINTEDDDEDDDDDDNSDEEDNDDSDDDDDE
modifications: phosphoserine at 385 (phosphorylated in vitro by Fam20C; saturated phosphorylation >95%)
notes: also called phosphorylated CSQ2; phosphorylated His-CASQ2; source: E. coli BL21 (DE3)-RILP, purified (Ni-NTA), phosphorylated in vitro by Fam20C, then size exclusion chromatography; not shown: His6, C-terminal, kept
As to B1, in series [2], the binding result is recorded as “binds”.

B2: calsequestrin 2 (CSQ2), unphosphorylated, His-tagged (natural protein, human, UniProt O14958 19-399, looked up)
chain: B1 chain
notes: Control sample of the turbidity assay: same treatment as the phosphorylated protein but without Fam20C; also called CASQ2; His-CASQ2; source: E. coli BL21 (DE3)-RILP, purified (Ni-NTA, size exclusion chromatography); treated in tandem without Fam20C; not shown: His6, C-terminal, kept
For the molecule B2, the binding result in series [2] was “binds”.
